Measured values from article PMC6804253, “Predicting and Experimentally Validating Hot-Spot Residues at Protein–Protein Interfaces” (ACS Chemical Biology, 2019).

Columns and labels:
[1] = system: PPIs of the SKEMPI data set (by PDBID); details: single mutation to alanine, ref SKEMPI, cited from earlier work; for sk_ddG_kJ (SKEMPI experimental ΔΔG): complex given by PDBID, residue group SQNT
[2] = system: PPIs of the SKEMPI data set (by PDBID); assay: SKEMPI experimental ΔΔG, single mutations to alanine; type: binding; details: for sk_class: class of the SKEMPI experimental ΔΔG

Molecule	sk_ddG_kJ (SKEMPI experimental ΔΔG, mutation to alanine) ([1]; PPI given by PDBID, sheet sortedByGroup, r_group DERKH) [kJ]	sk_class (class of the SKEMPI experimental ΔΔG) ([2]; class by ΔΔG threshold 4.184 kJ/mol, ref SKEMPI)	sk_ddG_kJ (SKEMPI experimental ΔΔG) [1] [kJ]	sk_class [2]
1A4Y RA457A (protein, UniProt P13489 2-461, looked up, variant R457A) Ribonuclease inhibitor: SLDIQSLDIQCEELSDARWAELLPLLQQCQVVRLDDCGLTEARCKDISSALRVNPALAELNLRSNELGDVGVHCVLQGLQTPSCKIQKLSLQNCCLTGAGCGVLSSTLRTLPTLQELHLSDNLLGDAGLQLLCEGLLDPQCRLEKLQLEYCSLSAASCEPLASVLRAKPDFKELTVSNNDINEAGVRVLCQGLKDSPCQLEALKLESCGVTSDNCRDLCGIVASKASLRELALGSNKLGDVGMAELCPGLLHPSSRLRTLWIWECGITAKGCGDLCRVLRAKESLKELSLAGNELGDEGARLLCETLLEPGCQLESLWVKSCSFTAACCSHFSSVLAQNRFLLELQISNNRLEDAGVRELCQGLGQPGSVLRVLWLADCDVSDSSCSSLAATLLANHSLRELDLSNNCLGDAGILQLVESVRQPGCLLEQLVLYDIYWSEEMEDRLQALEKDKPSLAVIS	-0.92	Neutral (neutral (little effect) 4.184 kJ/mol < ΔΔG > −4.184 kJ/mol)	–	–
1DAN TU132A (protein, UniProt P13726 33-251, looked up, variant T132A, extracellular domain) extracellular domain: SGTTNTVAAYNLTWKSTNFKTILEWEPKPVNQVYTVQISTKSGDWKSKCFYTTDTECDLTDEIVKDVKQTYLARVFSYPAGNVESTGSAGEPLYENSPEFTPYLETNLGQPTIQSFEQVGTKVNVTVEDERALVRRNNTFLSLRDVFGKDLIYTLYYWKSSSSGKKTAKTNTNEFLIDVDKGENYCFSVQAVIPSRTVNRKSTDSPVECMGQEKGEFRE	–	–	0.00	Neutral (neutral (little effect) 4.184 kJ/mol < ΔΔG > −4.184 kJ/mol)
1DAN TU172A (protein, UniProt P13726 33-251, looked up, variant T172A, extracellular domain) extracellular domain: SGTTNTVAAYNLTWKSTNFKTILEWEPKPVNQVYTVQISTKSGDWKSKCFYTTDTECDLTDEIVKDVKQTYLARVFSYPAGNVESTGSAGEPLYENSPEFTPYLETNLGQPTIQSFEQVGTKVNVTVEDERTLVRRNNTFLSLRDVFGKDLIYTLYYWKSSSSGKKTAKTNANEFLIDVDKGENYCFSVQAVIPSRTVNRKSTDSPVECMGQEKGEFRE	–	–	-0.08	Neutral (neutral (little effect) 4.184 kJ/mol < ΔΔG > −4.184 kJ/mol)
1DAN TU139A (protein, UniProt P13726 33-251, looked up, variant T139A, extracellular domain) extracellular domain: SGTTNTVAAYNLTWKSTNFKTILEWEPKPVNQVYTVQISTKSGDWKSKCFYTTDTECDLTDEIVKDVKQTYLARVFSYPAGNVESTGSAGEPLYENSPEFTPYLETNLGQPTIQSFEQVGTKVNVTVEDERTLVRRNNAFLSLRDVFGKDLIYTLYYWKSSSSGKKTAKTNTNEFLIDVDKGENYCFSVQAVIPSRTVNRKSTDSPVECMGQEKGEFRE	–	–	-0.04	Neutral (neutral (little effect) 4.184 kJ/mol < ΔΔG > −4.184 kJ/mol)
1DAN TU197A (protein, UniProt P13726 33-251, looked up, variant T197A, extracellular domain) extracellular domain: SGTTNTVAAYNLTWKSTNFKTILEWEPKPVNQVYTVQISTKSGDWKSKCFYTTDTECDLTDEIVKDVKQTYLARVFSYPAGNVESTGSAGEPLYENSPEFTPYLETNLGQPTIQSFEQVGTKVNVTVEDERTLVRRNNTFLSLRDVFGKDLIYTLYYWKSSSSGKKTAKTNTNEFLIDVDKGENYCFSVQAVIPSRAVNRKSTDSPVECMGQEKGEFRE	–	–	0.46	Neutral (neutral (little effect) 4.184 kJ/mol < ΔΔG > −4.184 kJ/mol)
1DAN SU163A (protein, UniProt P13726 33-251, looked up, variant S163A, extracellular domain) extracellular domain: SGTTNTVAAYNLTWKSTNFKTILEWEPKPVNQVYTVQISTKSGDWKSKCFYTTDTECDLTDEIVKDVKQTYLARVFSYPAGNVESTGSAGEPLYENSPEFTPYLETNLGQPTIQSFEQVGTKVNVTVEDERTLVRRNNTFLSLRDVFGKDLIYTLYYWKSSSAGKKTAKTNTNEFLIDVDKGENYCFSVQAVIPSRTVNRKSTDSPVECMGQEKGEFRE	–	–	0.08	Neutral (neutral (little effect) 4.184 kJ/mol < ΔΔG > −4.184 kJ/mol)
